Measured values reported in article doi:10.1101/2022.11.04.515028.

Biological target: GST-ELOB/ELOC complex (UniProt Q15370)
Experiment: fluorescence polarisation

Substance | Kd | Ki
EPOPwt-FAM (peptide) | 0.45 nM | 
EPOPwt (peptide) |  | 2.35 nM
